Results on nine substances are retold here after patent US20190263934A1.

Bounds are passed on as bounds.

What is called kon is the second-order rate constant of association. The low end stands for slow association, the high end for fast association. As a reminder, the koff is the first-order rate constant of dissociation.

The target in test [1] is rFcRn (rat) (UniProt P13599). Put plainly: SPR Biacore, pH 7.4, 1000 nM antibody.
Target sequence in this assay (P13599 23-298 limits assumed, form in doubt, chain 1 of 2): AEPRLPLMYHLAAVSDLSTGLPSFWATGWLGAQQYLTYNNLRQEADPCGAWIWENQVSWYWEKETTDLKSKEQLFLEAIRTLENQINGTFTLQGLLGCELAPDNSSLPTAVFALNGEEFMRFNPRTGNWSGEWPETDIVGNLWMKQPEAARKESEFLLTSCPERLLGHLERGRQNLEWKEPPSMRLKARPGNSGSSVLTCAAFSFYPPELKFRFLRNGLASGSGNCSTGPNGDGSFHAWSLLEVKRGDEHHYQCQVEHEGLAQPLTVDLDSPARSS
Target sequence in this assay (P07151 21-119 limits assumed, form in doubt, chain 2 of 2, further chain): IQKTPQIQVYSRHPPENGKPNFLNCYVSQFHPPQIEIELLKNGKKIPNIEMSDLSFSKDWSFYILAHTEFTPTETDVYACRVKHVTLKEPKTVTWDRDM
Test [2] concerns the target biotinylated hFcRn (human) (UniProt P55899). Put plainly: SPR Biacore, pH 7.4, 1000 nM antibody. (In SPR one partner is held on a chip, and binding of the other changes the refractive index at the surface.)
Target sequence in this assay (P55899 24-297 limits assumed, form in doubt, chain 1 of 2): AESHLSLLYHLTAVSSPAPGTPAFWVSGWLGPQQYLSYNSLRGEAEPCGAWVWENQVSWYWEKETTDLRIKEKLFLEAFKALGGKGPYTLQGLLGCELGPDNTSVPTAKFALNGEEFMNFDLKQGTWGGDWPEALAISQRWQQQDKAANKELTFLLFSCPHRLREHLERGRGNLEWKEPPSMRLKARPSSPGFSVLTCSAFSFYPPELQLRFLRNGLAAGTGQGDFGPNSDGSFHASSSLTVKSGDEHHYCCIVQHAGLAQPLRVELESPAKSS
Target sequence in this assay (P61769 21-119 limits assumed, form in doubt, chain 2 of 2, further chain): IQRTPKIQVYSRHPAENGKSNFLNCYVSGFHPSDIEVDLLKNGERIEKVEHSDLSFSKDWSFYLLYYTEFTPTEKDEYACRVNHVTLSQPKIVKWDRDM
For test [3] the target is unchanged. Put plainly: SPR Biacore, pH 6.0.
Target sequence in this assay (P55899 24-297 limits assumed, form in doubt, chain 1 of 2): as the sequence (P55899 24-297 limits assumed, form in doubt, chain 1 of 2) above
Target sequence in this assay (P61769 21-119 limits assumed, form in doubt, chain 2 of 2, further chain): as the sequence (P61769 21-119 limits assumed, form in doubt, chain 2 of 2, further chain) above
The target of test [4] is rFcRn (rat) (UniProt P13599). In words: BLI Octet screen, pH 6.0. In general terms: Biolayer interferometry detects binding as a change in optical thickness at a sensor tip.
Target sequence in this assay (P13599 23-298 limits assumed, form in doubt, chain 1 of 2): as the sequence (P13599 23-298 limits assumed, form in doubt, chain 1 of 2) above
Target sequence in this assay (P07151 21-119 limits assumed, form in doubt, chain 2 of 2, further chain): as the sequence (P07151 21-119 limits assumed, form in doubt, chain 2 of 2, further chain) above
For test [5], the target named is Human CD16a (FcγRIIIa) V158 with C-terminal HPC4 tag (human) (UniProt P08637). Put plainly: SPR Biacore, captured FcγRIIIa-V158.
Human CD16a (FcγRIIIa) V158 with C-terminal HPC4 tag (human), sequence (P08637 17-208 F176V): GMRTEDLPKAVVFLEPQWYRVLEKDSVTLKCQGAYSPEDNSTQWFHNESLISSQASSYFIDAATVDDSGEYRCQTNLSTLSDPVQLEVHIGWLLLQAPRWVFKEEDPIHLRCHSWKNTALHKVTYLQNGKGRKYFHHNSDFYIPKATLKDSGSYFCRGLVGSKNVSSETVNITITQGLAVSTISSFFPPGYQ
The target is the same in test [6]. Put plainly: SPR Biacore FcγRIIIa.
Test [7] concerns the target rFcRn (rat) (UniProt P13599). Put plainly: SPR Biacore, pH 7.4.
Target sequence in this assay (P13599 23-298 limits assumed, form in doubt, chain 1 of 2): as the sequence (P13599 23-298 limits assumed, form in doubt, chain 1 of 2) above
Target sequence in this assay (P07151 21-119 limits assumed, form in doubt, chain 2 of 2, further chain): as the sequence (P07151 21-119 limits assumed, form in doubt, chain 2 of 2, further chain) above
Test [8] addresses biotinylated hFcRn (human) (UniProt P55899). Put plainly: SPR Biacore, pH 7.4.
Target sequence in this assay (P55899 24-297 limits assumed, form in doubt, chain 1 of 2): as the sequence (P55899 24-297 limits assumed, form in doubt, chain 1 of 2) above
Target sequence in this assay (P61769 21-119 limits assumed, form in doubt, chain 2 of 2, further chain): as the sequence (P61769 21-119 limits assumed, form in doubt, chain 2 of 2, further chain) above
Test [9] deals with rFcRn (rat) (UniProt P13599). In words: BLI Octet, pH 6.0, purified antibody.
Target sequence in this assay (P13599 23-298 limits assumed, form in doubt, chain 1 of 2): as the sequence (P13599 23-298 limits assumed, form in doubt, chain 1 of 2) above
Target sequence in this assay (P07151 21-119 limits assumed, form in doubt, chain 2 of 2, further chain): as the sequence (P07151 21-119 limits assumed, form in doubt, chain 2 of 2, further chain) above
Test [10] addresses rFcRn (rat) (UniProt P13599). Put plainly: Biacore SPR, pH 6.0, bivalent fit.
Target sequence in this assay (P13599 23-298, form in doubt, chain 1 of 2): as the sequence (P13599 23-298 limits assumed, form in doubt, chain 1 of 2) above
Target sequence in this assay (P07151 21-119, form in doubt, chain 2 of 2, further chain): as the sequence (P07151 21-119 limits assumed, form in doubt, chain 2 of 2, further chain) above
Test [11] has as its target biotinylated hFcRn (human) (UniProt P55899). In words: Biacore SPR, pH 6.0, bivalent fit.
Target sequence in this assay (P55899 24-297, form in doubt, chain 1 of 2): as the sequence (P55899 24-297 limits assumed, form in doubt, chain 1 of 2) above
Target sequence in this assay (P61769 21-119, form in doubt, chain 2 of 2, further chain): as the sequence (P61769 21-119 limits assumed, form in doubt, chain 2 of 2, further chain) above
Test [12] concerns the target rFcRn (rat) (UniProt P13599). In words: SPR Biacore, pH 6.0.
Target sequence in this assay (P13599 23-298 limits assumed, form in doubt, chain 1 of 2): as the sequence (P13599 23-298 limits assumed, form in doubt, chain 1 of 2) above
Target sequence in this assay (P07151 21-119 limits assumed, form in doubt, chain 2 of 2, further chain): as the sequence (P07151 21-119 limits assumed, form in doubt, chain 2 of 2, further chain) above
Test [13] addresses biotinylated hFcRn (human) (UniProt P55899). In words: SPR Biacore, pH 6.0. This is another data set of the same source.
Target sequence in this assay (P55899 24-297 limits assumed, form in doubt, chain 1 of 2): as the sequence (P55899 24-297 limits assumed, form in doubt, chain 1 of 2) above
Target sequence in this assay (P61769 21-119 limits assumed, form in doubt, chain 2 of 2, further chain): as the sequence (P61769 21-119 limits assumed, form in doubt, chain 2 of 2, further chain) above
The target of test [14] is rFcRn (rat) (UniProt P13599). In words: SPR Biacore, pH 6.0. This is another data set of the same source.
Target sequence in this assay (P13599 23-298 limits assumed, form in doubt, chain 1 of 2): as the sequence (P13599 23-298 limits assumed, form in doubt, chain 1 of 2) above
Target sequence in this assay (P07151 21-119 limits assumed, form in doubt, chain 2 of 2, further chain): as the sequence (P07151 21-119 limits assumed, form in doubt, chain 2 of 2, further chain) above
Test [15] deals with biotinylated hFcRn (human) (UniProt P55899). Put plainly: SPR Biacore, pH 7.4. The source holds these as a separate data set.
Target sequence in this assay (P55899 24-297 limits assumed, form in doubt, chain 1 of 2): as the sequence (P55899 24-297 limits assumed, form in doubt, chain 1 of 2) above
Target sequence in this assay (P61769 21-119 limits assumed, form in doubt, chain 2 of 2, further chain): as the sequence (P61769 21-119 limits assumed, form in doubt, chain 2 of 2, further chain) above
Test [16] deals with biotinylated human FcRn (hFcRn; p51 subunit residues 24-297 with C-terminal Avi-tag, β2-m residues 21-119) (human) (UniProt P55899). In words: Biacore SPR, pH 7.4, steady state, 1000 nM antibody.
biotinylated human FcRn (hFcRn; p51 subunit residues 24-297 with C-terminal Avi-tag, β2-m residues 21-119) (human), sequence (P55899 24-297, form in doubt, chain 1 of 2): as the sequence (P55899 24-297 limits assumed, form in doubt, chain 1 of 2) above
biotinylated human FcRn (hFcRn; p51 subunit residues 24-297 with C-terminal Avi-tag, β2-m residues 21-119) (human), sequence (P61769 21-119, form in doubt, chain 2 of 2, further chain): as the sequence (P61769 21-119 limits assumed, form in doubt, chain 2 of 2, further chain) above
In test [17] the target is Human CD16a (FcγRIIIa residues 17-208, C-terminal HPC4 tag, valine at position 158) (human) (UniProt P08637). In words: Biacore SPR, HPC4-captured FcγRIIIa-V158, pH 7.4.
Human CD16a (FcγRIIIa residues 17-208, C-terminal HPC4 tag, valine at position 158) (human), sequence (P08637 17-208 F176V): as the sequence (P08637 17-208 F176V) above
Test [18] concerns the target biotinylated human FcRn (hFcRn; p51 subunit residues 24-297 with C-terminal Avi-tag, β2-m residues 21-119) (human) (UniProt P55899). In words: Biacore SPR, pH 6.0, apparent affinity.
Test [19] shares this target. In words: Biacore SPR, Biotin CAPture, pH 7.4, 1000 nM antibody, steady state.
For test [20] the target is unchanged. In words: Biacore SPR, human FcRn, pH 7.4, steady state.
For test [21] the target is unchanged. Put plainly: Biacore SPR, Biotin CAPture of biotinylated human FcRn, pH 6.0.
For test [22] the target is unchanged. Put plainly: Biacore SPR; pH 6.0 affinity (M^-1) over pH 7.4 steady state RU.
Test [23] shares this target. Put plainly: Biacore SPR, human FcRn, pH 6.0 (column 'Affinity, pH 6.0 (nM)').
The target is the same in test [24]. Put plainly: Biacore SPR; second ratio column (inverse of c7).

As to mAb1 N434F (antibody), the Steady State RU worked out at 54.9 RU with rFcRn (rat) [1], 20.1 RU in test [2], 61.5 RU with rFcRn (rat) [7] and 22.2 RU in test [8]. For the same substance, the kon turned out to be 350000 M⁻¹ s⁻¹ in [3]; 126000 M⁻¹ s⁻¹ with rFcRn (rat) [10]; 350000 M⁻¹ s⁻¹ in [11]; 126000 M⁻¹ s⁻¹ with rFcRn (rat) [12]; 354000 M⁻¹ s⁻¹ in test [13]. The substance also displayed a fold slower off-rate vs WT with rFcRn (rat) [4] of over 2 fold. Moreover, the FcγRIIIa V158 Affinity Fold Change (relative to WT) in test [5] was found to be 1.16 fold. For the same substance, in [6], the % enhanced binding vs WT lay within 16 to 40%. The dissociation rate constant (koff) in the test with rFcRn (rat) [9] amounted to 0.00118 s⁻¹; with rFcRn (rat) [10], 0.0034 s⁻¹; in [11], 0.05 s⁻¹; with rFcRn (rat) [12], 0.00336 s⁻¹; in test [13], 0.05 s⁻¹. Moreover, the Kd with rFcRn (rat) [10] was 0.026 µM; in test [11], 0.165 µM; in the test with rFcRn (rat) [12], 0.026 µM; in test [13] it was 0.165 µM.
With mAb1 M252Y/T256D (antibody), the Kd is 0.0059 µM with rFcRn (rat) [14] and 0.00586 µM with rFcRn (rat) [12]. Further, the Steady State RU with rFcRn (rat) [7] was 56 RU; in test [8], 9.7 RU.
On to mAb1 N434Y (antibody), for which the Steady State RU with rFcRn (rat) [1] is 47 RU; in [2], 22.6 RU; with rFcRn (rat) [7], 66 RU; in [8], 25.5 RU. The dissociation rate constant (koff) in [3] is 0.05 s⁻¹; with rFcRn (rat) [9], 0.00133 s⁻¹; in the test with rFcRn (rat) [10], 0.0035 s⁻¹; in test [11], 0.05 s⁻¹; with rFcRn (rat) [12] it was 0.00346 s⁻¹; in [13], 0.052 s⁻¹. The association rate constant (kon) in test [3] turned out to be 360000 M⁻¹ s⁻¹; with rFcRn (rat) [10], 145000 M⁻¹ s⁻¹; in [11] it was 360000 M⁻¹ s⁻¹; in the test with rFcRn (rat) [12], 145000 M⁻¹ s⁻¹; in [13], 359000 M⁻¹ s⁻¹. The same substance yielded a fold slower off-rate vs WT with rFcRn (rat) [4] of over 2 fold. Also, the FcγRIIIa V158 Affinity Fold Change (relative to WT) in [5] stood at 1.41 fold. In [6], the % enhanced binding vs WT fell in the range of 16 to 40%. Moreover, the Kd is 0.023 µM with rFcRn (rat) [10], 0.137 µM in test [11], 0.023 µM with rFcRn (rat) [12] and 0.137 µM in test [13].
As for mAb1 T256D/T307Q (antibody), the figures for the Kd (with rFcRn (rat) [14]; with rFcRn (rat) [12]; in [13]) were 0.0095 µM, 0.00954 µM and 0.232 µM, respectively. In addition, the koff was determined as 0.87 s⁻¹ in test [3], 0.00127 s⁻¹ with rFcRn (rat) [12] and 0.0872 s⁻¹ in test [13]. Also, the kon worked out at 38000 M⁻¹ s⁻¹ in test [3], 133000 M⁻¹ s⁻¹ with rFcRn (rat) [12] and 376000 M⁻¹ s⁻¹ in [13]. Moreover, in test [5], the FcγRIIIa V158 Affinity Fold Change (relative to WT) was determined as 0.73 fold. The Steady State RU with rFcRn (rat) [7] turned out to be 39.1 RU; in test [8] it was 10.7 RU.
Take mAb1 T307A/E380A/N434A (antibody): the Steady State RU is 23.6 RU with rFcRn (rat) [1], 13.9 RU in [2] and 13.1 RU in test [15]. For the same substance, the koff with rFcRn (rat) [9] is 0.00377 s⁻¹; with rFcRn (rat) [12], 0.0117 s⁻¹; in test [13], 0.144 s⁻¹. The results for the Kd (with rFcRn (rat) [12]; in test [13]) were 0.077 µM and 1.78 µM, respectively. Also, the kon was 157000 M⁻¹ s⁻¹ with rFcRn (rat) [12] and 83700 M⁻¹ s⁻¹ in [13].
The substance “mAb1 YDQY variant (M252Y/T256D/T307Q/N434Y) (antibody)” registered a Steady State Binding, pH 7.4 (RU) in [16] of 80.2 RU. Moreover, the FcγRIIIa Binding (RU) in [17] was 119 RU. Further, the Ka in [18] was found to be 2.35e+08 M⁻¹. Also, in test [19], the pH 7.4 RU is 103 RU. This substance had a Steady State RU (pH 7.4) in test [20] of 103 RU. Moreover, the Kd in test [21] and in test [23] was 0.0027 µM throughout. In [22], the Ratio (pH 6.0/pH 7.4) was found to be 2.93e+06. Moreover, the Ratio (pH 7.4/pH 6.0) in test [24] was 3.41e-07.
As for mAb1 M252Y/S254T/T256E (antibody), the Steady State RU in the test with rFcRn (rat) [1] worked out at 53.9 RU; in [2], 13.2 RU; in test [15] it was 13.1 RU; with rFcRn (rat) [7] it was 53.9 RU; in [8], 13.2 RU. In addition, the values for the Kd (in test [3]; with rFcRn (rat) [12]) were 0.342 µM and 0.018 µM, respectively. This substance returned a % reduction in binding response vs wild-type in [6] of 50%. Also, the figures for the koff (with rFcRn (rat) [9]; in the test with rFcRn (rat) [12]; in test [13]) were 0.00066 s⁻¹, 0.00121 s⁻¹ and 0.045 s⁻¹, respectively.
Consider mAb1 T256D/T307W (antibody), for which the Kd turned out to be 0.0082 µM in the test with rFcRn (rat) [14], 0.00824 µM in the test with rFcRn (rat) [12] and 0.169 µM in [13]. Also, the koff worked out at 0.89 s⁻¹ in test [3], 0.00129 s⁻¹ with rFcRn (rat) [12] and 0.0892 s⁻¹ in [13]. Besides, the figures for the association rate constant (kon) (in [3]; with rFcRn (rat) [12]; in test [13]) were 53000 M⁻¹ s⁻¹, 157000 M⁻¹ s⁻¹ and 529000 M⁻¹ s⁻¹, respectively. In test [5], this substance had a FcγRIIIa V158 Affinity Fold Change (relative to WT) of 0.89 fold. Also, the Steady State RU in the test with rFcRn (rat) [7] was 42.1 RU; in test [8], 12.2 RU.
mAb1 M428L/N434S (antibody): the Steady State RU with rFcRn (rat) [1] was determined as 24.8 RU; in test [2], 18.3 RU; in test [15], 18.5 RU; with rFcRn (rat) [7], 24.8 RU; in test [8], 18.3 RU. The Kd is 0.272 µM in [3] and 0.074 µM with rFcRn (rat) [12]. In addition, the koff in [3] was determined as 0.5 s⁻¹; with rFcRn (rat) [9] it was 0.00338 s⁻¹; in the test with rFcRn (rat) [12] it was 0.00658 s⁻¹; in [13] it was 0.052 s⁻¹. The kon amounted to 19000 M⁻¹ s⁻¹ in [3], 90800 M⁻¹ s⁻¹ with rFcRn (rat) [12] and 193000 M⁻¹ s⁻¹ in test [13]. Besides, in test [5], the FcγRIIIa V158 Affinity Fold Change (relative to WT) came out at 1.04 fold.
